Laboratory results as given in patent publication CN116554324A (SANYOU BIO INC, dated 2023).
Residue numbers refer to the chain shown, from its start.

B1: Ag10058 (antibody, human IgG4 S228P, kappa, V domains shown)
VH: EVQLVESGGGLVQPGGSLRLSCAASGFSLSTSGVGVGWIRQAPGKGLEWLALIDWDDDKYYSPSLKSRLTISRDNSKNTLYLQLNSLRAEDTAVYYCARGGSDTVLGDWFAYWGQGTLVTVSS
VL: DIQLTQSPSSLSASVGDRVTITCRASQSVSPYLAWYQQKPGKAPKLLIYDASSLESGVPSRFSGSGSGTDFTLTISSLQPEDFATYYCQQGYSLWTFGQGTKVEIKR
notes: also called 阳性对照抗体Ag10058
B2: Ag10131 (antibody, human IgG4 S228P, kappa, V domains shown)
VH: B1 VH with S32G, D56A, L106I
VL: B1 VL with V29I, S30G, P31S, S53N, S56T, S93Y
notes: also called 阳性对照抗体Ag10131; 对照抗体Ag10131
B3: 99-2-17 (antibody, human IgG4 S228P, lambda, V domains shown)
VH: QVQLVQSGGGLVQPGGSLRLSCSASGFTFSSYAMHWVRQAPGKGLEYVSAISSNGGSTYYADSVKGRFTISRDNSKNTLYLQMSSLRAEDTAVYYCVKGSGWSPIDAFDIWGQGTMVTVSS
VL: QSALTQPPSVSGAPGQRVTISCTGSSSNIGAGYDVHWYQQLPGTAPKLLIYGNSNRPSGVPDRFSGSKSGTSASLAITGLQAEDEADYYCQSYDSSLSGSGAVFGGGTQLTVLG
notes: also called 抗体99-2-17; 母本抗体99-2-17
B4: 99-2-35 (antibody, human IgG4 S228P, kappa, V domains shown)
VH: EVQLLESGGGLVQPGGSLRLSCAASGFTFSSYEMNWVRQAPGKGLEWVSYISSSGSTIYYADSVKGRFTISRDNAKNSLYLQMNSLRAEDTAVYYCARDFNGGYSYYPIAFDIWGQGTMVTVSS
VL: EIVLTQSPATLSLSPGERATLSCRASQSVSSYLAWYQQKPGQAPRLLIYDASNRATGIPARFSGSGSGTDFTLTISSLEPEDFAVYYCQQRSNWPPMYTFGQGTKLEIKR
notes: also called 抗体99-2-35; 母本抗体99-2-35

How the values were obtained:
[1] = molecular target: T1, 生物素化的hu4-1BB-hFc (human, UniProt Q07011 24-186, EZ-Link Sulfo-NHS-LC-biotin label; the sites are not stated); test: ELISA
T1 construct: range 24-186; also called 生物素标记的hu4-1BB-hFc抗原蛋白; biotinylated hu4-1BB-hFc; not shown: human IgG1 Fc fragment fused at the C-terminus

[2] = molecular target: T2, hu4-1BB-hFc (human, UniProt Q07011 24-186); test: ELISA
T2 construct: range 24-186; also called 4-1BB-Fc; not shown: human IgG1 Fc fragment fused at the C-terminus

[3] = molecular target: T3, 人4-1BB (Uniprot编号Q07011), expressed on cells (human, UniProt Q07011 24-255); test: flow cytometry on hu4-1BB-CHO cells
T3 construct: whole, on cells; also called hu4-1BB-CHO; 人4-1BB过表达细胞

[4] = molecular target: T4, hu4-1BB-His (human, UniProt Q07011 24-186); test: ELISA, hu4-1BB-His coated at 2 μg/mL, anti-human IgG Fc-HRP
T4 construct: range 24-186; Expressed in ExpiCHO and purified on Ni beads; also called 抗原蛋白hu4-1BB-His; 人4-1BB抗原蛋白; not shown: C-terminal His tag

[5] = molecular target: T5, Mus4-1BB-hFc (mouse; human, UniProt P20334 24-187); test: ELISA, Mus4-1BB-hFc coated at 2 μg/mL, anti-human kappa+lambda-HRP
T5 construct: range 24-187; also called 鼠4-1BB抗原蛋白Mus4-1BB-hFc; not shown: Fc tag made by the same method as for hu4-1BB-hFc (human IgG1 Fc fragment)
T5 sequence (looked up): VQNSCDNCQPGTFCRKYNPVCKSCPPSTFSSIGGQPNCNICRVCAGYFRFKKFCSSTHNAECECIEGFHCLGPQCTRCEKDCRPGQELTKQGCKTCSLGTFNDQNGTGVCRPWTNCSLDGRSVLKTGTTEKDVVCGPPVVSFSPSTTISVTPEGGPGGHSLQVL

T3 sequence (Q07011 24-255): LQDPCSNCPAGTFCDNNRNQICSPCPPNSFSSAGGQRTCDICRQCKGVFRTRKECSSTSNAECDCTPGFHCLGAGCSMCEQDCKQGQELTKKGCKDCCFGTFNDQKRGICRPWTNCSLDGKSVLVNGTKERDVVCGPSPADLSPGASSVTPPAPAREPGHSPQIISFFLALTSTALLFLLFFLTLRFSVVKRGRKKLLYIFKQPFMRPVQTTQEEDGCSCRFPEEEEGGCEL

Binder | binding result [1] | binding result [2] | binding result [3] | binding result [4] | binding result [5] | EC50 [4] [µg/mL]
B1 | binds | binds | – | – | – | –
B2 | binds | binds | binds | binds | – | –
B3 | – | – | – | – | binds | 0.411
B4 | – | – | – | – | binds | 0.35
